{"source": "the nanobody polyreactivity screen of Harvey et al. (2022)"}
{"test": "yeast display, Sf9 membrane polyspecificity reagent, FACS + sequencing; frameworks hold sequencing errors", "outline": "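A synthetic nanobody library was expressed on Saccharomyces cerevisiae BJ5465 by galactose induction for 36–48 hours. The library was stained for 1 hour at 4 °C with 10% biotinylated, detergent-solubilized Sf9 membrane reagent and enriched with streptavidin microbeads before FACS. Low and high (top ~1%) gates were set on anti-HA fluorescence for expression and streptavidin fluorescence for reagent binding, and each polyreactivity label reflects the gate of origin.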"}
{"sequence": "QVNLVESGGGLVQAGGSLRLSCAASGLIFFYAMGWYRQAPGKERELVAGISSGGNTNYGDSVKGRFTISRDNAKNTVYLQMNSLKPEDTAVYYCNARGFTGDHQWYLWARPLYDYWGQGTQVTVSS", "polyreactivity (PSR sort gate)": "high polyreactivity"}
{"sequence": "HVQLVDSGGVLVQAGGSLRLSCAASGSIYDANAMGRYRQAPGKERELVAAISSSGGITYYADSVKGRFTISRDNAKNTVYLQMNSLKPEDTAVYYCVAEYGYIDYSYLFWSDYWGQGTQVTVSS", "polyreactivity (PSR sort gate)": "high polyreactivity"}
{"sequence": "QVQLVESGGGLVQAGGSLRLSCAASGRIFGDNAMGWYRQAPGKEREFVAAISWSGGTTYYADSVKGRFTISRDNAKNTVYLQMNSLKPEDTAVYYCAADYTRGYDYWGQGTQVTVSS", "polyreactivity (PSR sort gate)": "low polyreactivity"}
{"sequence": "QVQLVESGGGLVQAGGSLRLSCAASGGTFYGYAAMGWYRQAPGKERELVAAISRSGGRTYYADSVKGRFTISRDNAKNTVYLQMNSLKPEDTAVYYCNVGFYPYYFLTYQGGDYWGQGTQVTVSS", "polyreactivity (PSR sort gate)": "high polyreactivity"}
{"sequence": "QVQLVESGGGLVQAGGSLRLSCAASGRTFQWYAMGWYRQAPGKERELVAAISYSDASTYYADSVKGRFTISRDNAKNTVYLQMNSLKPEDTAVYYCAAVYYVVYGPWGGSYYWGQGTQVTVSS", "polyreactivity (PSR sort gate)": "low polyreactivity"}
{"sequence": "QVQLVESGGGLVQAGGSLRLSCAASGRTFWIYAMGWYRQAPGKEREFVAAISSSGGGTYYADSVKGRFTISRDNAKNTVYLQMNSLKPEDTAVYYCAADDGYSSNEFDYWGQGTQVTVSS", "polyreactivity (PSR sort gate)": "low polyreactivity"}
{"sequence": "QVQLVESGGGLVQAGGSLRLSCAASGSTFGYYAMGWYRQATGKERELVAAISSGGSTSYADSVKGRFTISRDNAKNTVYLQMNSLKPEDTAVYYCNTSYRKKKRYYYWGQGTQVTVSS", "polyreactivity (PSR sort gate)": "high polyreactivity"}
{"sequence": "QVQLVESGGGLVQAGGSLRLSCAASGSTFDGYAMGWYRQAPGKERELVAAITVSVGSTYYADSVKGRFTISRDNAKNTVYLQMNSLIPEDTAVYYCAADYDYHYRYYYWGQGTQVTVSS", "polyreactivity (PSR sort gate)": "low polyreactivity"}
{"sequence": "QVQLVESGGGLVQAGGSLRLSCAASGSNSSFYAMGWYRQAPGKERELVAGITSGGSTNYADSVKGRFTISRDNAKNTVYLQLNSLKPEDTAVYYCAAERTPSFRAYDYWGQGTLVTVSS", "polyreactivity (PSR sort gate)": "low polyreactivity"}
{"sequence": "QDQLVESGGGLVQAGGSLRLSCAASGRIFQGYAMGWYRQAPGKERELVAAITLSGGSTYYADSVKGRFTISRDNAKNTVYLQMNSLKPEDTAVYYCNAYYPDEPSLYDYWGQGTQVTVSS", "polyreactivity (PSR sort gate)": "low polyreactivity"}
{"sequence": "QVQLVESGGGLVQAGGSLRLSCAASGRTFTYYAMGWYRQAPGKERELVAAIRYTGGSTHYADSVKGRFTISRDNAKNTVYLQMNSLKPEDKAVYYCAARRAYTRGGTVYFGYYYWGQGTQVTVSS", "polyreactivity (PSR sort gate)": "high polyreactivity"}
{"sequence": "QVQLVESGGGLVQAGGSLRLSCAASGIIFSTYAMGWYRQAPGKERELVAAISVSGGRTYYADSVKGRFTISRDNAKNTVYLQMNSLKREDTAVYSCNALSSTEYDYWGQGTQVTVSS", "polyreactivity (PSR sort gate)": "high polyreactivity"}
{"sequence": "QVQLVESGGGLVQAGGSLRLSCAASGSILSYYAMGWYRQAPGKERELVAAISKSGGRTYYADSVKGRFTISRDNAKNTVYLQMNSLKPEETAVYYCAAEIVVFYSEGQRNTFYYWGQGTQVTVSS", "polyreactivity (PSR sort gate)": "high polyreactivity"}
{"sequence": "QVQLVESGGGLVQAGGSLRLSCAASGSTFSAYAMGWYRQAPGKERELVATITSDGSTNYADSVKGRFTISRDNAKNTVYLQMNSLKPEDTAVYYCAAKRQYKRSRMYYWGQGTQVTVSS", "polyreactivity (PSR sort gate)": "high polyreactivity"}
{"sequence": "QVQLVESGGGLVQAGGSLRLSCAASGSIFTQYVMGWYRQAPGKERELGAAITWSGGNTYYADSVKGRFTISRDNAKNTVYLQMNSLKPEDTAVYYCAAYKPYSKYNYWGQGTQVTVSS", "polyreactivity (PSR sort gate)": "high polyreactivity"}
{"sequence": "QVQLVESGGGLVQAGGSLRLSCAASGRIFVAYTMGWYRQAPGKERELVAAISTNGGRTYYADSVKGRFTISRDNAKNTVYLQMNSLKPEDTAVYYCAAYRGPRADYYWGQGTQVTVSS", "polyreactivity (PSR sort gate)": "high polyreactivity"}
{"sequence": "QVQLEESGGGLVQAGGSLRLSCAASGSIFRWNAMGWSRQAPGKERELVAAISSGTSTNYADSVKGRFTISRDNAKNTVYVQMNSQKPEDTAVYYCAARGRKNQRRYGYWGQGTQVTVSS", "polyreactivity (PSR sort gate)": "low polyreactivity"}
{"sequence": "QVQLVESGGGLVQAGGSLRLSCAAYGLTFYHYTMGWYRQAPGKERELVAAISSSGVTTYYADSVKGRFTISRDNAKNTVYLQMNSLKPEDTAVYYCAAVWYPDRVQPENGTTDSPGDYWGQGTQVTVSS", "polyreactivity (PSR sort gate)": "low polyreactivity"}
{"sequence": "QVQLVESGGGLVQAGGSLRLSCAASGSTFTTYAMGWYRQAPGKERELVAAISIRGGRTYYADSVKGRFTISRDNAKNTVYLQMNSLKPEDTAVYYCAAETYYAVSTGYDFDYWGQGTQVTVSS", "polyreactivity (PSR sort gate)": "high polyreactivity"}
{"sequence": "QVQLVESGGGLFQARGSLRLSCAASGLTFWYYDMGWYRQAPGKERELFAAINSGGSTYYADSEKGRFTISRDNAKNTVYLEINRLKPEDTAVYYCNKDFSKTWRYASYYYWGQGTQVTVSS", "polyreactivity (PSR sort gate)": "low polyreactivity"}
{"sequence": "QVQLVESGGGLVQAGGSLRLSCAASGRIFYSYAMGWYRQAPGKERELVATISSGGSTNYADSVKGRFTISRDNAKNTVYLQMNSLKPEDTAVYYCARDSTYSSYTSNDYWGQGTQVTVSS", "polyreactivity (PSR sort gate)": "high polyreactivity"}
{"sequence": "QVQLVESGGGLVQAGGSLRFSCAASGSTFRDYAMGWYRQAPGKERELVAAISSRGATTYYADSVKGRFTISRDNAKNTVYLQMNSLKPEDTAVYYCNARQRRNPGGYGYWGQGTQVTVSS", "polyreactivity (PSR sort gate)": "high polyreactivity"}
{"sequence": "QVQLVESGGGLVQAGGCLRLSCAASGFTFKTYAMGWYRQAPGKEREFVAAITTRVGSTYYADSVKGRFSISRDNAKNTVYLQMISLKPEDTAVYYCNYNFNYPYYRYGYWGQGTQVTVSS", "polyreactivity (PSR sort gate)": "high polyreactivity"}
{"sequence": "QVQLVESGGGLVQAGGSLRLSCAASGSTFARYAMGWYRQAPGKERELVAGISRGGRTYYADSVMGRFTISRDYAKNTVYLQMNSLKPVDTAVYYCAKRYVTLYNSQYNYWGQGTQVTVSS", "polyreactivity (PSR sort gate)": "high polyreactivity"}
{"sequence": "QVQLVESGGGLVQAGGSLRLSCAASGLIFFVYAMGWYRQAPGKERELVAAISASGVSTNYADSVKGRFTISRDNAKNTVYLQMNSLKPEDTAVYYCAAGRGGYGYWGQGTQVTVSS", "polyreactivity (PSR sort gate)": "low polyreactivity"}
{"sequence": "QVQLVESGGGLVQAGGSLRLSCAASGFNFYFYTMGWYRQAPGKERELVAGITWSGDSTYYADSVKGRFTISRDNAKNTVYLQMNSLKPEDTAVYYCAAGFDFGTRVSKGYDYWGQGTQVTVSS", "polyreactivity (PSR sort gate)": "low polyreactivity"}
{"sequence": "QVQLVESGGGLVQAGGSLRLSCAASGSIFSPYAMGWYRQAPGKERELVAGISKSAGTTFYADSVKGRFTISRDNAKNTVYLQMNSLKPEDTAVYYCAADYYYPAWYLSDYWGQGTQVTVSS", "polyreactivity (PSR sort gate)": "low polyreactivity"}
{"sequence": "QVQLVESGGGLVQAGGSLRISCAASGITFRWYAMGWYRQAPGKERELVAGINSSGGSTNYADSVKGRFTISRDNAKNTVYLQMNSLKPADTAVYYCNADLRSEYDYWGQGTQETVSS", "polyreactivity (PSR sort gate)": "low polyreactivity"}
{"sequence": "QVQLVESGGGLVQAGGSLRLSCAASGRMFYYYVMGWYRQAPGKESELVAVIDWSGGSTYYADSLKGRFTISRDTAKNTVYLQMNSLKPEDTAVYYCARVPYGNPNGNTPYGDNRYNSWGQGTQVTVSS", "polyreactivity (PSR sort gate)": "low polyreactivity"}
{"sequence": "QVQLVESGGGLVQAGGSLRLSCAASGLIFDLYAMGWYRQAPGKERELVAAITWSGGSTYYADSVKGRFTISRDNAKNTVYLQMNSLKPEDTAVYYCAAETHLWYDFDYWGQGTQVTVSS", "polyreactivity (PSR sort gate)": "high polyreactivity"}
{"sequence": "QVHLVESGGGLVQAGGSLRLSCAASGRTFGYYAMGWYRQAPGKERELVATISGRAGRTYYADSVKGRFTISRDNAKNTVYLQMNSLKPEDTAVYYCATRSLQKYYWIANSYGYWGHGTQVTVSS", "polyreactivity (PSR sort gate)": "high polyreactivity"}
{"sequence": "QVQLVESGGGLVQAGGSLRLSCAASGFIFRYNTMGWYRQPPGKERELVAAISVSGARTYYADSVKGRFTLSRDNAKNTVYLQMNSLKPEDTAVYYCNRRYPLYSRYNNDYWGQGTQVTVSS", "polyreactivity (PSR sort gate)": "high polyreactivity"}
{"sequence": "QVQLQESGGGLVQAGRSLRLSCEASGSISILQSMGWYRQAPGKEGELVAGINWGATTYYADSVKVRLTTSRDYAKNTVYLEMNSLKPEETAVYYCAVPTYYTYPLLYWGPGTQVTVSS", "polyreactivity (PSR sort gate)": "low polyreactivity"}
{"sequence": "QVQLVESGGGLVQAGGSLRLSCAASGFTFGVYAMGWYRQAPGKERELVATISSSGSTNYADSVKGRFTISRDNAQNPVYLQMNSLKPEDTAVYYCAVYYLYRRRQYYYWGQGTQVTVSS", "polyreactivity (PSR sort gate)": "low polyreactivity"}
{"sequence": "QVQLVESGGGLVQAGGSLRLSCAASGRILYYYAMGWYRQAPGKERELVAAINSSGGSTYYADSVKGRFTISRDNAKNTVYLQMNSLKPEDTAVYYCAALRGNVLWYPPSYFRYDYWGQGTQVTVSS", "polyreactivity (PSR sort gate)": "high polyreactivity"}
{"sequence": "QVQLVESGGGLVQAGGSLRLICAASGSTYRYYAMGWSRQAPGKERELVAGITGSGGSTYYADSVKGRFTISRDNAKNTVYLQMNSLNPEDTAVYDCATKLRRWRFYAAYDYWGQGTQVTVSS", "polyreactivity (PSR sort gate)": "high polyreactivity"}
{"sequence": "QVQLVESGGGLVQAGGSLRLSCAASGIIFSQYAMGWYRQAPGKERELVASISSGGRTNYADSVKGRFTISRDNAKNTVYLQMNSLKPEDTAVYYCATRYRYKRYAASVQYDYWGQGTQVTVSS", "polyreactivity (PSR sort gate)": "high polyreactivity"}
{"sequence": "QVQLEESGGGLVQAGGSLRLSCAASGSTFFPYAMGWYRQAPGKERELVAGISSDGGTSYADSVKGRFTISRDTAKNTVYLQMNSLKPEDTAVYYCNARAVNVRDYINYDYWGQGTQVTVSS", "polyreactivity (PSR sort gate)": "low polyreactivity"}
{"sequence": "QVQLVESGGGLVQAGGSLRLSCAASGRTFSYNAMGWYRQAPGKERELVATISWGGGSTYYADSVKGRFTISRDNAKNTVYLQMNSQKPEDTAVFYCARVGWYAYLIDRDYWGQGSQVTVSS", "polyreactivity (PSR sort gate)": "high polyreactivity"}
{"sequence": "QVQLVESGGGLVQAGGSLRLSCAASGRIFDGYAMGWYRQAPGQERELVAAISSRGGRTYYADSVKGRFTISRDHAKNTVYLQMNSLKPEDTAVYYCAADDPYGEGDYWGQGTQVTVSS", "polyreactivity (PSR sort gate)": "low polyreactivity"}
{"sequence": "QVQHVESGGGLVQAGGSNRLSCAASAFIFRSNAMGWYRQAAGKEREFVPAISSRGGSTTYADSVKGRFTISRDNAKITVYLQMKSLKPEDTAVYYCARDCYYYPQYRKRYYYWGQGTQVSVSS", "polyreactivity (PSR sort gate)": "high polyreactivity"}
{"sequence": "QVQLVESGGGLVQAGGSLRLSCAASGLTFGSYAMGWYRQAPGKERELVAAISRSGGSTYYADSVMGRFTISRDNAKNTVYLQMNSLKPEDTAVYYCNAVNRYYAPTDRRVGYDYWGQGTQVTVSS", "polyreactivity (PSR sort gate)": "high polyreactivity"}
{"sequence": "QVQLVESGGGLVQAGGSLRLSCAASGSTFKTYTMGWYRQAPGKERELVAGITSGGSTSYADSVKGRFTISRDNAKNTVYLQMNSLKPEDTAVYYCNADAYLVIYFYTVRDYGYDYWGQGTQVTVSS", "polyreactivity (PSR sort gate)": "low polyreactivity"}
